# Measurements taken from article PMC10350107, “Mechanism of DNA unwinding by hexameric MCM8–9 in complex with HROB” (Research Square, 2023).
# B1: human MCM8–9 complex, wild type (FLAG-MCM8 with MBP-MCM9, co-expressed) (complex)
# chain 1: MNGEYRGRGFGRGRFQSWKRGRGGGNFSGKWREREHRPDLSKTTGKRTSEQTPQFLLSTKTPQSMQSTLDRFIPYKGWKLYFSEVYSDSSPLIEKIQAFEKFFTRHIDLYDKDEIERKGSILVDFKELTEGGEVTNLIPDIATELRDAPEKTLACMGLAIHQVLTKDLERHAAELQAQEGLSNDGETMVNVPHIHARVYNYEPLTQLKNVRANYYGKYIALRGTVVRVSNIKPLCTKMAFLCAACGEIQSFPLPDGKYSLPTKCPVPVCRGRSFTALRSSPLTVTMDWQSIKIQELMSDDQREAGRIPRTIECELVHDLVDSCVPGDTVTITGIVKVSNAEEGSRNKNDKCMFLLYIEANSISNSKGQKTKSSEDGCKHGMLMEFSLKDLYAIQEIQAEENLFKLIVNSLCPVIFGHELVKAGLALALFGGSQKYADDKNRIPIRGDPHILVVGDPGLGKSQMLQAACNVAPRGVYVCGNTTTTSGLTVTLSKDSSSGDFALEAGALVLGDQGICGIDEFDKMGNQHQALLEAMEQQSISLAKAGVVCSLPARTSIIAAANPVGGHYNKAKTVSENLKMGSALLSRFDLVFILLDTPNEHHDHLLSEHVIAIRAGKQRTISSATVARMNSQDSNTSVLEVVSEKPLSERLKVVPGETIDPIPHQLLRKYIGYARQYVYPRLSTEAARVLQDFYLELRKQSQRLNSSPITTRQLESLIRLTEARARLELREEATKEDAEDIVEIMKYSMLGTYSDEFGNLDFERSQHGSGMSNRSTAKRFISALNNVAERTYNNIFQFHQLRQIAKELNIQVADFENFIGSLNDQGYLLKKGPKVYQLQTM
# chain 2: not shown
# notes: human MCM8; human MCM9; Written as the heterodimer (theoretical 266 kDa with tags; hexamer 798 kDa); in solution a mix of dimers, tetramers and hexamers; also called MCM8-MCM9; FLAG-MCM8-MBP-MCM9 heterodimer complex; source: Sf9 insect cells, co-expressed; hexamer-rich pool with a Superose 6 step) or captured from lysate on amylose resin and washed; not shown: FLAG, N-terminal, kept; MBP, …
# Columns and labels:
# [1] = biological target: the molecule itself; test: negative staining transmission electron microscopy; human MCM8–9 at 220 nM; ring-like particles, heterodimers to hexameric rings
# [2] = biological target: B1; test: pull-down; MBP-MCM9/FLAG-MCM8 from Sf9 lysate immobilised on amylose resin and washed (300 mM NaCl, 0.1% NP40); incubated with 1 μg purified HROB wild type or mutant in 50 mM Tris-HCl pH 7.5, 100 mM NaCl, 3 mM EDTA, BSA, 1 h at 4 °C; maltose elution, western blot; conditions: both partners purified
binding result [2],Binder,binding result [1]
,B1,binds
binds,"HROB-L405D (natural protein, human, UniProt Q8N3J3-4 1-646, looked up, human HROB as in m1 (closest to isoform 4, lacks Q-484, T126P) with L405D in the disordered region that contacts MCM8) MACSLQKLFAVEEEFEDEDFLSAVEDAENRFTGSLPVNAGRLRPVSSRPQETVQAQSSRLLLLHPTAPSEALGLPDLDLCLPASSTPSADSRPSCIGAAPLRPVSTSSSWIGNQRRVTVTEVLREPARPQSSALHPLLTFESQQQQVGGFEGPEQDEFDKVLASMELEEPGMELECGVSSEAIPILPAQQREGSVLAKKARVVDLSGSCQKGPVPAIHKAGIMSAQDESLDPVIQCRTPRPPLRPGAVGHLPVPTALTVPTQQLHWEVCPQRSPVQALQPLQAARGTIQSSPQNRFPCQPFQSPSSWLSGKAHLPRPRTPNSSCSTPSRTSSGLFPRIPLQPQAPVSSIGSPVGTPKGPQGALQTPIVTNHLVQLVTAASRTPQQPTHPSTRAKTRRFPGPAGIDPHQQSGRSLEDIMVSAPQTPTHGALAKFQTEIVASSQASVEEDFGRGPWLTMKSTLGLDERDPSCFLCTYSIVMVLRKAALKQLPRNKVPNMAVMIKSLTRSTMDASVVFKDPTGEMQGTVHRLLLETCQNELKPGSVLLLKQIGVFSPSLRNHYLNVTPNNLVHIYSPDSGDGSFLKPSQPFPKDSGSFQHDVAAKPEEGFRTAQNLEAEASPEEELPEADDLDGLLSELPEDFFCGTSS",
